In assay [1] the target is T1, Human CD147 (Uniprot P35613), recombinant protein (UniProt P35613 138-325).
T1 chain: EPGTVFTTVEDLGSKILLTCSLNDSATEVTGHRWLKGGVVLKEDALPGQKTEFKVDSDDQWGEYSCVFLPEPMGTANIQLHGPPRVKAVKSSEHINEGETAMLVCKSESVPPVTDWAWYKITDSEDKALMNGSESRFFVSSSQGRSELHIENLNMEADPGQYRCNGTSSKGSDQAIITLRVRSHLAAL
Nature of the assay: SPR. In general terms: SPR reads the build-up and loss of mass on a sensor chip optically.

Assay [2] deals with T2, Murine CD147 (Uniprot P18572), recombinant protein (murine (mouse), UniProt P18572 22-325, limits assumed).
T2 construct: also called mCD147; mouse CD147
T2 sequence: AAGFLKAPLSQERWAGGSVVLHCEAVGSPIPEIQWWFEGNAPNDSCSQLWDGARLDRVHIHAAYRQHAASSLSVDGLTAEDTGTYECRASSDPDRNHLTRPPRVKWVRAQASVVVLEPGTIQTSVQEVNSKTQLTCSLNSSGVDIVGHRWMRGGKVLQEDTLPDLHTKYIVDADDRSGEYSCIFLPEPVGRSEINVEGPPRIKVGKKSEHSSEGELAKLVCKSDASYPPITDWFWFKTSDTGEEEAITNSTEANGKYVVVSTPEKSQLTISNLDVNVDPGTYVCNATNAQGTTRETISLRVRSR
Nature of the assay: ELISA, 100 ng murine CD147 coated, anti-flag detection. How it is done: For the ELISA, 100 ng of murine CD147 was coated onto Nunc polysorb plates overnight in 1× coating buffer. The wells were washed once with TBST (0.01% tween 20) and then blocked for 1 hour using 1× fishgel in TBST at room temperature (RT). Ibx-11, Ibx-13, Ibx-75, Ibx-76, Ibx-77, and anti-HIS antibody was incubated at 0.01-100 ng/well in 100 μl for 1 hour at RT before being washed 3× for 5 min each wash. The wells were incubated with anti-human for Ibx-11 & Ibx-13 treated wells and with anti-flag for Ibx-77, Ibx-75, Ibx-76 treated wells at 1:1000 dilution for 1 hour RT, and then washed 3× for 5 min each wash. The wells were incubated with 100p/Well of TMBE for 30 minutes and the reaction was stopped with 100p/Well of 2N sulphuric acid. Optical Density (OD) was measured using Biotek synergy 4 instrument for quantification.
(In general: In an ELISA, binding on a coated surface is turned into a signal by an enzyme label.)

Assay [3] deals with T3, Human CD147 (Uniprot P35613), recombinant protein (human, UniProt P35613 138-325).
T3 construct: also called recombinant CD147; CD147 protein
T3 sequence: T1 chain
The assay can be described thus: SPR sensorgram, partly purified sample injected on a sensor chip; the chip's ligand is not stated. Here is the method:
Approximately 45 μl of Ibx-74 and Ibx-75 at various stages of purification were provided; 35 μl of each sample was injected on a sensor chip and sensograms were collected. The flow rate was 10 μ/minute, and the chip was regenerated with 10 mM Glycine at pH 1.5.

The target in assay [4] is T1, Human CD147 (Uniprot P35613), …. The assay can be described thus: SPR; steady state 1:1 fit; Ibx-77 injected over immobilized CD147.
Assay [5] has the same target. The assay can be described thus: SPR; kinetic model; Ibx-77 injected over immobilized CD147.
The target in assay [6] is T3, Human CD147 (Uniprot P35613), …. Nature of the assay: SPR, CD147 injected as analyte at 0-900 nM, steady state 1:1 fit. Here is the method: (§1) For this assay, CD147 was injected in HBS-EP buffer pH7.4 at concentrations ranging from 0 nM to 900 nM at 10 μl/min for 600 Seconds. Duplicate CD147 injections were carried out for 0, 9.22, […], 23.04, 57.6, 144, 360, 900 nM (a 2.5-fold dilution series). The chip surface was regenerated using 10 mM Glycine pH 2.0 @ 10 μl/min for 180 sec.
(§2) One technical replicate of 0 nm & 23.04 nM was excluded from analysis due to sudden air spikes and DIPs during analyte injection. Data were analyzed in Q-Dat software provided by instrument manufacturer. A steady state 1:1 fitting model (FIG. 4) was used for initial steady state binding analysis, and a simple Kd/Ka kinetic model (FIG. 5) was used to estimate KD.

For assay [7] the target is unchanged. Nature of the assay: SPR, CD147 injected as analyte at 0-900 nM, kinetic model. How it is done: as §1, §2

B1: Ibx-75 (dimer of Ibx-12) (VHH)
chain: QVRLVESGGGLVQAGDSLRLSCQASGGTFTTYAMGWFRQAPGQEREFVSATTWSTGTSYYAYAADSVKGRFTTSRDNDNTVTLTMKRLKPDDTAVYYCSADPDGSDWAHSARQLRYWGQGTQVTVSSEPKIPQPQPKPQPQPQPQPQPKPQPEPQVRLVESGGGLVQAGDSLRLSCQASGGTFTTYAMGWFRQAPGQEREFVSATTWSTGTSYYAYAADSVKGRFTTSRDNDNTVTLTMKRLKPDDTAVYYCSADPDGSDWAHSARQLRYWGQGTQVTVSS
notes: Tandem bivalent VhH without Fc; also called tandem bivalent Ibx-75; not shown: Flag tag, since detection was with anti-flag
A word on the Kd: it is the free concentration of one partner at which half of the binding sites on the other are occupied at equilibrium, for simple one-to-one binding. As usually defined, the koff is a measure of how fast the partners let go of each other. Consider B1, for which the dissociation constant Kd in assay [1] was determined as 0.000428 nM. Besides, the binding result in assay [2] was “no binding (tested: 0.01-100 ng/well)”. Also, the dissociation rate constant (koff) in assay [3] stood at 1e-06 s⁻¹.

B2: Ibx-74 (dimer of Ibx-11) (VHH)
chain: QVRLEESGGGLVQAGGSLRLSCAASGLAFSIYGMGWFRQAPGKEREFVSVVDNTGSTTLYADSVKGRFTISRDNAKNTVYLQMSSLEPEDTAVYYCGAGPKNYLGSHEYAYWGQGTQVTVSSEPKIPQPQPKPQPQPQPQPQPKPQPEPQVRLEESGGGLVQAGGSLRLSCAASGLAFSIYGMGWFRQAPGKEREFVSVVDNTGSTTLYADSVKGRFTISRDNAKNTVYLQMSSLEPEDTAVYYCGAGPKNYLGSHEYAYWGQGTQVTVSS
notes: Tandem bivalent VhH
On to B2, for which the equilibrium dissociation constant (Kd) in assay [1] turned out to be 0.0139 nM. Besides, the koff in assay [3] stood at 3e-05 s⁻¹.

B3: Ibx-76 (dimer of Ibx-13) (VHH)
chain: QVQLVESGGGLVQPGGSLRLSCTASEDTFSTYAIGWFRQAPGQGREFVAGITANGIATRYNDSLKDRFTISRDNAKNTVYLQMNSLQPEDTAVYSCGADTRRFSLPSTVHEIDYWGQGTQVTVSSEPKIPQPQPKPQPQPQPQPQPKPQPEPQVQLVESGGGLVQPGGSLRLSCTASEDTFSTYAIGWFRQAPGQGREFVAGITANGIATRYNDSLKDRFTISRDNAKNTVYLQMNSLQPEDTAVYSCGADTRRFSLPSTVHEIDYWGQGTQVTVSS
notes: Tandem bivalent VhH without Fc; not shown: Flag tag, since detection was with anti-flag
Take B3: in assay [2], the binding result is recorded as “no binding (tested: 0.01-100 ng/well)”.

B4: Ibx-77 (dimer of Ibx-14) (VHH, not shown: small tags and cut ends)
chain: QVQLVESGGGLVQAGDSLTLSCAASGRSLSSNAMGWFRQAPGKEREFVSGTTWHAGTQYYAYAADSVKGRFTTSRDNANTVSLQMKRLKPEDTAVYYCAAAVSGPGYDSWGQGTQVTVSSEPKIPQPQPKPQPQPQPQPQPKPQPEPQVQLVESGGGLVQAGDSLTLSCAASGRSLSSNAMGWFRQAPGKEREFVSGTTWHAGTQYYAYAADSVKGRFTTSRDNANTVSLQMKRLKPEDTAVYYCAAAVSGPGYDSWGQGTQVTVSS
notes: Tandem bivalent VhH without Fc
One may read the kon as the rate constant with which the complex forms. As for B4, the dissociation constant (Kd) in assay [4] came out at 10.8 nM; in assay [5] it was 0.335 nM; in assay [6], 138 nM; in assay [7] it was 36.1 nM. In addition, the binding result in assay [2] is recorded as “no binding (tested: 0.01-100 ng/well)”. Moreover, the koff in assay [7] came to 0.000489 s⁻¹. In addition, the kon in assay [7] was 13300 M⁻¹ s⁻¹.

Values taken from patent US20240010723A1 (IBEX BIOSCIENCES, published 2024).
